The subject of one series is cyno CD200R. Description: BIAcore SPR binding of CD200-Fc to cynomolgus CD200R. Particulars: 25° C., mean of two runs. The text has this: BIAcore instrumentation uses an optical method, Surface Plasmon Resonance (SPR), to measure the binding characteristics of two interacting molecules; in this case wild-type CD200-Fc or CD200-Fc mutants binding to the CD200 receptor (CD200R). The technique measures changes in the refractive index of one of the two interacting molecules captured on a chip (sensor) when the second molecule is flowed in solution over the captured partner. In these experiments CD200-Fc was immobilized on the chip (sensor) surface and CD200R was injected in an aqueous buffer over the captured CD200-Fc under continuous flow conditions. Changes in the CD200-Fc refractive index following CD200R binding were measured in real time and the result plotted as response units (RUs) versus time to generate sensorgrams.
The experiments were performed on a GE Healthcare BIAcore T200. […]
For mouse CD200 constructs, muCD200R-Fc (Creative Biomart CD200R1-458M) diluted to 1 μg/mL in running buffer was flowed over the immobilized Anti-Human IgG Fc, with CD200 monomers serially diluted and flowed over captured CD200R. […] Data analysis: experimental sensorgrams were analyzed in BIAevaluation software (GE Healthcare). […] Closeness of fit was determined by algorithms provided by the manufacturer in the BIAevaluation software, and data accepted if the Chi^2 value was less than 10% of Rmax, and the U value was less than or equal to 15.

Another series deals with U937-CD200R cells. In words: Cytokine release (IL-6 inhibition) assay, LPS stimulated U937-CD200R cells. It counts as cell-based, human. The protocol: Cytokine production, including IL-6, from these cells can be induced by stimulation with PMA and then LPS.
50,000 U937 cells per well were seeded in 96 well plates and differentiated following incubation for 72 hours with 100 nM PMA. Following differentiation, the PMA containing media was replaced with fresh assay media and incubated for a further 2 hours prior to treatment. CD200-Fc constructs were added with or without Fc block to the cell culture and incubated for 1 hour, then cells were stimulated with 100 ng/ml LPS and incubated for a further 24 hours. Following the final incubation, cell supernatant (diluted 1:10) was collected and assayed for IL-6 secretion by ELISA assay using a commercially available kit.
Cell line construction, cytokine inhibition testing, and cell binding testing were conducted using similar techniques as in Example 3 above.

Series [1] can be described thus: PK study in serum of cynomolgus monkeys. It counts as in vivo. The conditions noted are these: 5 mg/kg i.v. bolus; for AUC 0-t: t = 28 days. The protocol: 2 cynomolgus monkeys per group (one male, one female) were dosed at 5 mg/kg with an i.v. bolus of protein at time 0. Blood samples were taken for PK analysis at the following timepoints: pre-dose, 0.25 hr, 0.5 hr, 1 hr, 4 hr, 8 hr, 24 hr, day 3, day 5, day 7, day 10, day 12, day 14, day 21, day 28.
At least 0.8 mL blood samples were collected from a cephalic or saphenous vein at sampling time points from the two animals. For samples collected within the first hour of dosing, a ±1 minute deviation in sample collection time was acceptable. For the remaining time points, samples that were taken within 5% of the scheduled time are acceptable. All blood samples were collected into commercially available tubes containing coagulant. The tubes containing blood samples remained at room temperature for 30 minutes before centrifugation. The samples were centrifuged at 4° C. for 10 minutes at 1500×g within one hour of collection. About 400 μL serum per time point was collected post centrifugation. The samples were then quickly frozen over dry ice and kept at −60° C. or lower until transferred in dry ice for analysis. All samples were uniquely identified to indicate origin and collection time.
The concentrations of analyte in serum were determined using a bioanalytical ELISA method. 96-well ELISA plates were coated overnight at 4° C. with 1 μg/ml Goat anti-Human IgG in Carbonate-bicarbonate buffer. After wash and blocking, serial diluted plasma samples were added and then biotin labeled Goat anti-human IgG (0.0625 ug/mL) was used as detection antibody. HRP-Streptavidin and TMB substrate were used for colour development. The reaction was stopped after approximately 5-10 minutes through the addition of 2M HCl. The absorbance was read at 450 nm and 540 nm using a microplate spectrophotometer (SpectraMax® M5e). The OD value of the samples were substituted into the standard curve to obtain the plasma concentration. The detection limit of this ELISA method LLOQ for Fc+Fc is 1 ng/mL.
The serum concentration of ARQ-234 in monkeys was subjected to a non-compartmental pharmacokinetic analysis by using the Phoenix WinNonlin software (version 8.1, Pharsight, Mountain View, CA). The linear/log trapezoidal rule was applied in obtaining the PK parameters.

As for “ARQ-234: mutated human CD200-Fc fusion protein: CD200 K130Y, I131Y directly fused to IgG4 Fc S228P, M428L, N434S”, in the series on cyno CD200R, the “ka” value is 159100 M⁻¹ s⁻¹ and the “kd” value was found to be 0.03997 s⁻¹. Further, the “inhibition of LPS stimulated IL-6 release” value in the series with U937-CD200R cells (PMA differentiated U937-CD200R cells, 100 ng/ml LPS, 24 hours, ELISA) is given as “able to inhibit LPS stimulated IL-6 secretion in a concentration dependent manner”. In addition, the “effect of Fc block on inhibition of IL-6 release” value in the series on U937-CD200R cells (with versus without Fc block reagent) is on record as “No significant difference in inhibition”. Also, in series [1] (serum), the “average half-life in the two animals tested” value came to 15.44 days. For the same substance, in series [1] (animal #3001 (M)), the “Cl_obs” value was 7.45 mL/day/kg, the “MRTINF_obs” value stood at 17.3 days, the “Vss_obs” value was 0.129 L/kg and the “AUC 0-t” value amounted to 12927 µg·h/mL. In addition, in series [1] (animal #3001 (M), serum), the “Cmax” value stood at 127 µg/mL and the “t1/2” value is 12.4 days. Moreover, in series [1] (animal #3002 (F)), the “Cl_obs” value was found to be 6.56 mL/day/kg, the “MRTINF_obs” value stood at 25.3 days, the “Vss_obs” value was determined as 0.166 L/kg and the “AUC 0-t” value amounted to 12259 µg·h/mL. Further, the “Cmax” value in series [1] (animal #3002 (F), serum) came to 124 µg/mL. The “t1/2 (h)” value in series [1] (animal #3002 (F), serum, footnote: half-life not accurate (AUC_%Extrap_obs >20% or Rsq_adjusted <0.9)) is 443^ h.

As a reminder, the Cmax is the peak of the concentration-time curve.

(Values after patent publication US20260116946A1, “NOVEL CD200 FUSION PROTEINS” (DUCENTIS BIOTHERAPEUTICS LIMITED, priority 2022, published 2026).)
